This data set in a line: self-splicing fitness, log relative to wild type (ln ratio); higher = more splicing; Tetrahymena group I intron in knt gene, E. coli kanamycin selection, DiMSum; sequences stand for … in CUCUCU…GGAGGGAAAAGUUAUCAGGCAUGCACCUGGUAGCUAGUCUUUAAACCAAUAGAUUGCAUCGGUUUAAAAGGCAAGACCGUCAAAUUGCGGGAAAGGGGUCAACAGCCGUUCAGUACCAAGUCUCAGGGGAAACUUUGAGAUGGCCUUGCAAAGGGUAUGGUAAUAAGCUGACGGACAUGGUCCUAACCACGCAGCCAAGUCCUAAGUCAACAGAUCUUCUGUUGAUAUGGAUGCAGUUCACAGACUAAAUGUCGGUCGGGGAAGAUGUAUUCUUCUCAUAAGAUAUAGUCGGACCUCUCCUUAAUGGGAGCUAGCGGAUGAAGUGAUGCAACACUGGAGCCGCUGGGAACUAAUUUGUAUGCGAAAGUAUAUUGAUUAGUUUUGGAGUACUCGUGGUCG
In short, it runs like this:
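Colonies from six replicate transformations of E. coli BL21(DE3) were pooled and amplicon-sequenced on an Illumina HiSeq 2500. The library placed an intron with all eight P1ex-region nucleotides randomised inside the knt kanamycin-resistance gene on pET-22b(+), and cells grew overnight at 37°C or 30°C on LB agar with or without 25 μg/mL kanamycin (plus 100 μg/mL carbenicillin, 50 μM IPTG, 0.2% rhamnose). Fitness is the DiMSum error-weighted combination of wild-type-normalised replicate fold changes, kanamycin versus none.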

From the supplement of paper PMC7877785 come the findings set out here.

± gives the uncertainty stated by the source.

For the sequence UGCAAGCAAUAUUACGAGAU, the “self-splicing fitness (ln)” value (30 °C) was -3.16 ± 0.24 and the “self-splicing fitness (ln)” value (37 °C) was -3.02 ± 0.35.

Turning to AAAGAGCAAUAUUACGACAG, the “self-splicing fitness (ln)” value (30 °C) is -3.56 ± 0.3 and the “self-splicing fitness (ln)” value (37 °C) is -2.86 ± 0.36. On to CUCAAGCAAUAUUACGCAUA, for which the “self-splicing fitness (ln)” value by setting is: (30 °C) -3.29 ± 0.22; (37 °C) -3.07 ± 0.34. For AUUUAGCAAUAUUACGUGCG, the “self-splicing fitness (ln)” value is -1.82 ± 0.091 (30 °C) and -0.316 ± 0.12 (37 °C).

With AUACAGCAAUAUUACGAUUG, the “self-splicing fitness (ln)” value (30 °C) is -3.14 ± 0.14 and the “self-splicing fitness (ln)” value (37 °C) is -2.59 ± 0.2. With GCGGAGCAAUAUUACGUAUC, under “30 °C”, the “self-splicing fitness (ln)” value was -1.83 ± 0.33.

On to CAAGAGCAAUAUUACGACUG, for which the “self-splicing fitness (ln)” value (30 °C) is -1.57 ± 0.12 and the “self-splicing fitness (ln)” value (37 °C) is -1.19 ± 0.19. The like results for AUCGAGCAAUAUUACGUUAA were, in that order, -3.73 ± 0.27 and -2.48 ± 0.29. In the case of UGUGAGCAAUAUUACGCUGC, the “self-splicing fitness (ln)” value (30 °C) was -1.9 ± 0.25.

Take GUCAAGCAAUAUUACGCGUU: the “self-splicing fitness (ln)” value is -2.07 ± 0.076 (30 °C) and -0.761 ± 0.097 (37 °C).

CUCCAGCAAUAUUACGUGUU: the “self-splicing fitness (ln)” value is, setting by setting: (30 °C) -3.62 ± 0.13; (37 °C) -2.31 ± 0.11. For the sequence UAAGAGCAAUAUUACGUCAU, the “self-splicing fitness (ln)” value (30 °C) was -2.21 ± 0.14 and the “self-splicing fitness (ln)” value (37 °C) was -2.22 ± 0.24. For GCGUAGCAAUAUUACGAUGC, the “self-splicing fitness (ln)” value is -3.71 ± 0.32 (30 °C) and -1.39 ± 0.27 (37 °C). CUCAAGCAAUAUUACGCUUG: the “self-splicing fitness (ln)” value is, setting by setting: (30 °C) -3.58 ± 0.18; (37 °C) -2.38 ± 0.23.

Turning to GAGUAGCAAUAUUACGGGGC, the “self-splicing fitness (ln)” value runs as follows: (30 °C) -2.79 ± 0.28; (37 °C) -1.98 ± 0.33. Consider AUGCAGCAAUAUUACGGUUU, for which the “self-splicing fitness (ln)” value reads like this: (30 °C) -0.723 ± 0.065; (37 °C) -0.427 ± 0.075. The like results for AUAGAGCAAUAUUACGCUGU were, in that order, -0.963 ± 0.11 and 0.0295 ± 0.14. The like results for CGUUAGCAAUAUUACGGCCA were, in that order, -1.01 ± 0.29 and -2.55 ± 0.46. Take AGGAAGCAAUAUUACGACGU: the “self-splicing fitness (ln)” value reads like this: (30 °C) 0.0515 ± 0.072; (37 °C) 0.213 ± 0.076.

With GGGUAGCAAUAUUACGGUUU, the “self-splicing fitness (ln)” value is -0.176 ± 0.068 (30 °C) and 0.138 ± 0.099 (37 °C). The like results for CAUAAGCAAUAUUACGUCAG were, in that order, -1.26 ± 0.13 and 0.389 ± 0.15. Turning to GUAUAGCAAUAUUACGUGCC, the “self-splicing fitness (ln)” value was -3.23 ± 0.34 (30 °C) and -2.54 ± 0.31 (37 °C).

Turning to GUAAAGCAAUAUUACGGGAC, the “self-splicing fitness (ln)” value (30 °C) was -1.62 ± 0.12 and the “self-splicing fitness (ln)” value (37 °C) was -1.18 ± 0.11.

As to UCUAAGCAAUAUUACGGUUA, the “self-splicing fitness (ln)” value runs as follows: (30 °C) -3.9 ± 0.42; (37 °C) -1.76 ± 0.17.

With GGCAAGCAAUAUUACGCAAC, the “self-splicing fitness (ln)” value is -2.24 ± 0.12 (30 °C) and -0.823 ± 0.1 (37 °C). The like results for AAUUAGCAAUAUUACGGAUU were, in that order, -2.2 ± 0.12 and -1.3 ± 0.14. For the sequence UCACAGCAAUAUUACGGGUG, the “self-splicing fitness (ln)” value is, setting by setting: (30 °C) -2.37 ± 0.09; (37 °C) -1.67 ± 0.083. Regarding AACAAGCAAUAUUACGUAGA, the “self-splicing fitness (ln)” value (30 °C) is -2.88 ± 0.089 and the “self-splicing fitness (ln)” value (37 °C) was -0.993 ± 0.077. Take AUUGAGCAAUAUUACGACUC: the “self-splicing fitness (ln)” value reads like this: (30 °C) -2.94 ± 0.29; (37 °C) -1.59 ± 0.27. In the case of AUUUAGCAAUAUUACGUCUC, the “self-splicing fitness (ln)” value is -3.59 ± 0.37 (30 °C) and -2.18 ± 0.3 (37 °C).

As for GGACAGCAAUAUUACGGGGG, the “self-splicing fitness (ln)” value (30 °C) was -2.84 ± 0.13 and the “self-splicing fitness (ln)” value (37 °C) was -3.18 ± 0.22.

On to UUGGAGCAAUAUUACGGGGC, for which the “self-splicing fitness (ln)” value was -3.04 ± 0.28 (30 °C) and -3.26 ± 0.47 (37 °C). Taken in the same sequence, the figures for AAAAAGCAAUAUUACGCGAA were -2.07 ± 0.12 and -1.19 ± 0.16. Turning to CGUUAGCAAUAUUACGAGCC, the “self-splicing fitness (ln)” value is, setting by setting: (30 °C) -2.52 ± 0.21; (37 °C) 0.132 ± 0.17. Regarding ACUUAGCAAUAUUACGAUAU, the “self-splicing fitness (ln)” value is -1.62 ± 0.087 (30 °C) and -1.18 ± 0.11 (37 °C).

With UGGGAGCAAUAUUACGGACG, the “self-splicing fitness (ln)” value (30 °C) was -1.52 ± 0.14 and the “self-splicing fitness (ln)” value (37 °C) is -0.236 ± 0.15.

With CCUUAGCAAUAUUACGGCAG, the “self-splicing fitness (ln)” value is, setting by setting: (30 °C) -1.83 ± 0.12; (37 °C) -2.73 ± 0.2. Taken in the same sequence, the figures for CCAUAGCAAUAUUACGUGUU were -3.47 ± 0.14 and -3.36 ± 0.16.
